The text below walks through data of paper doi:10.1101/473132 (bioRxiv, 2018).

For test [1], the target named is histone H2B, within the H3Kc9me3 mononucleosome (X. laevis, UniProt P02281 2-126). As to the kind of experiment: cross-linking.
In test [2] the target is histone H4, within the H3Kc9me3 mononucleosome (X. laevis, UniProt P62799 2-103). The test can be described thus: cross-linking.

B1: Swi6 (S. pombe HP1 protein) (natural protein)
chain: MKKGGVRSYRRSSTSKRSVIDDDSEPELPSMTKEAIASHKADSGSSDNEVESDHESKSSSKKLKENAKEEEGGEEEEEDEYVVEKVLKHRMARKGGGYEYLLKWEGYDDPSDNTWSSEADCSGCKQLIEAYWNEHGGRPEPSKRKRTARPKKPEAKEPSPKSRKTDEDKHDKDSNEKIEDVNEKTIKFADKSQEEFNENGPPSGQPNGHIESDNESKSPSQKESNESEDIQIAETPSNVTPKKKPSPEVPKLPDNRELTVKQVENYDSWEDLVSSIDTIERKDDGTLEIYLTWKNGAISHHPSTITNKKCPQKMLQFYESHLTFRENE
For B1, the binding result in test [1] and in test [2] was “binds” in each case.
